{"source": "paper PMC6885295", "about": "“Soluble Production, Characterization, and Structural Aesthetics of an Industrially Important Thermostable β-Glucosidase from Clostridium thermocellum in Escherichia coli” (BioMed Research International, 2019)", "system": "T1, OCc1ccccc1O[C@@H]1O[C@H](CO)[C@@H](O)[C@H](O)[C@H]1O", "T1 construct": "forward primer reads ATG GCA AAG ATA ACT TTC (N-terminus MAKITF, NcoI site may change residue 2)", "assay": "DNS reducing-sugar assay, Lineweaver-Burk plot", "type": "biochemical, Acetivibrio thermocellus", "conditions": "1.5 M Tris-Cl pH 7.0, 50 °C, 30 min, substrate range 2.5-20 mM"}
{"substance": "BglA (Acetivibrio thermocellus ATCC 27405; S2A)", "values": [{"measurement": "Km", "value": 19.83, "unit": "mM"}]}
